Laboratory results published in patent US20250188176A1.

B1: AHF21191 (Fab, V domains shown, not shown: small tags and cut ends)
VH: EVQLVESGGDLVKPGGSLRLSCVASGFTFRDYAMTWVRQAPGKGLQWVSLINGSGGKTYYADAVKGRFTISRDNAKNTLYLQMNSLRAEDTAVYYCAVDRLTKTIRPQYYGLWHWGQGTLVTVSS
VL: DIVMTQTPLSLSVSPGETASISCRSSQSLTYSIGYNYLDWYLQKPGQSPQGLIYLGSKRASGVPDRFSGSGSGTDFTLRISRVEANDTGVYYCMQGLQSPLGFGQGTKLEIKR
B2: AHF21194 (Fab, V domains shown, not shown: small tags and cut ends)
VH: EVQLVESGGDLVKPGGSLRLSCVASGFTFRDYAMTWVRQAPGKGLQWVSLINGSGGKTYYADAVKGRFTISRDNAKNTLYLQMNSLRAEDTAVYYCAVDRLTKTIRPQYYGLWVWGQGTLVTVSS
VL: DIVMTQTPLSLSVSPGETASISCRSSQSLLYSIGYNYLDWYLQKPGQSPQGLIYLGSKRASGVPDRFSGSGSGTDFTLRISRVEANDTGVYYCMQGLQSPLSFGQGTKLEIKR
B3: AHF21200 (Fab, V domains shown, not shown: small tags and cut ends)
VH: EVQLVESGGDLVKPGGSLRLSCVASGFTFRDYAMTWVRQAPGKGLQWVSLINGSGGKTYYADAVKGRFTISRDNAKNTLYLQMNSLRAEDTAVYYCAVDRKTKTIRPQYYGLWVWGQGTLVTVSS
VL: DIVMTQTPLSLSVSPGETASISCRSSQSLTYSIGYNYLDWYLQKPGQSPQGLIYLGSKRASGVPDRFSGSGSGTDFTLRISRVEANDTGVYYCMQPLQSPLSFGQGTKLEIKR
B4: AHF21199 (Fab, V domains shown, not shown: small tags and cut ends)
VH: EVQLVESGGDLVKPGGSLRLSCVASGFTFRDYAMTWVRQAPGKGLQWVSLINGSGGKTYYADAVKGRFTISRDNAKNTLYLQMNSLRAEDTAVYYCAVDRLTKTIRPQYYGLWVWGQGTLVTVSS
VL: DIVMTQTPLSLSVSPGETASISCRSSQSLTYSIGYNYLDWYLQKPGQSPQGLIYLGHKRASGVPDRFSGSGSGTDFTLRISRVEANDTGVYYCMQGLQSPLGFGQGTKLEIKR
B5: AHF21195 (Fab, V domains shown, not shown: small tags and cut ends)
VH: EVQLVESGGDLVKPGGSLRLSCVASGFTFRDYAMTWVRQAPGKGLQWVSLINGSGGKTYYADAVKGRFTISRDNAKNTLYLQMNSLRAEDTAVYYCAVDRKTKTIRPQYYGLWVWGQGTLVTVSS
VL: DIVMTQTPLSLSVSPGETASISCRSSQSLLYSIGYNYLDWYLQKPGQSPQGLIYLGSKRASGVPDRFSGSGSGTDFTLRISRVEANDTGVYYCMQGLQSPLSFGQGTKLEIKR
B6: AHF21201 (Fab, V domains shown, not shown: small tags and cut ends)
VH: EVQLVESGGDLVKPGGSLRLSCVASGFTFRDYAMTWVRQAPGKGLQWVSLINGSGGKTYYADAVKGRFTISRDNAKNTLYLQMNSLRAEDTAVYYCAVDRLTKTIRPQYYGLWHWGQGTLVTVSS
VL: DIVMTQTPLSLSVSPGETASISCRSSQSLLYSIGYNYLDWYLQKPGQSPQGLIYLGHKRASGVPDRFSGSGSGTDFTLRISRVEANDTGVYYCMQGLQSPLGFGQGTKLEIKR

These binders were tested against canine IL-4RA (construct not given) (canine) (assay: SPR, combinatorial Fab-SASA clone).

Binder	Kd [nM]	koff [s⁻¹]	kon [M⁻¹ s⁻¹]
B1	0.366	9.48e-05	259000
B2	0.627	0.000133	212000
B3	0.875	0.000127	146000
B4	0.395	8.18e-05	207000
B5	0.992	0.000192	193000
B6	0.44	0.000151	344000
